Laboratory results published in publication PMC12650658, “Evaluating the Topological Features of Monomeric and Trimeric TRAF2-C: A Multi-Disciplinary Approach” (Biomolecules, 2025).

Target: the molecule itself
Experiment: dynamic light scattering; TRAF2-C ≈ 4 µM (in monomers), 20 °C, filtered 0.22 µm; bimodal Gaussian fit of the size distribution (monomers, trimers)

B1: C-terminal domain of human TRAF2 (TRAF2-C, residues 310-501) (domain or fragment, UniProt Q12933 310-501, looked up)
chain: DQDKIEALSSKVQQLERSIGLKDLAMADLEQKVLEMEASTYDGVFIWKISDFARKRQEAVAGRIPAIFSPAFYTSRYGYKMCLRIYLNGDGTGRGTHLSLFFVVMKGPNDALLRWPFNQKVTLMLLDQNNREHVIDAFRPDVTSSSFQRPVNDMNIASGCPLFCPVSKMEAKNSYVRDDAIFIKAIVDLTGL
notes: TNF receptor-associated factor 2 (TRAF2), human, C-terminal domain, residues 310-501; Unlabelled protein used for DLS, CD and SANS; Only a pET-based vector is named; the tag is inferred from the Ni-NTA step; also called TRAF2 C-terminal domain; source: E. coli BL21 (DE3), purified (Ni-NTA, Superdex 75 SEC)
With B1 the “stoichiometry N” value was 3.
